Holding throughout (assay): receptor-Fc IP
Experiment [1] deals with T1, VEGFR-1-Fc (UniProt P17948 27-338).
T1 construct: domain: first three Ig domains; expressed in Drosophila S2 cells, purified on Protein A sepharose; also called VEGFR-1-Fc fusion protein; not shown: Fc fragment from the Signal-pIgPlus vector
An outline of the steps:
(§1)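 fusion protein at 400 ng/ml in an IP mix (PBS, 1.5% BSA, 0.06% Tween 20, 3 μg/ml heparin) was combined with sample supernatant at a 1:2 ratio. Bound ligand captured by immunoprecipitation with pentahistidine antibody.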

In experiment [2] the target is T2, VEGFR-3-Fc (UniProt P35916 25-328).
T2 construct: domain: first three Ig domains; conditioned supernatant of 293T cells; also called VEGFR-3-Fc fusion protein; not shown: Fc fragment of the pIg vector
T2 sequence (looked up): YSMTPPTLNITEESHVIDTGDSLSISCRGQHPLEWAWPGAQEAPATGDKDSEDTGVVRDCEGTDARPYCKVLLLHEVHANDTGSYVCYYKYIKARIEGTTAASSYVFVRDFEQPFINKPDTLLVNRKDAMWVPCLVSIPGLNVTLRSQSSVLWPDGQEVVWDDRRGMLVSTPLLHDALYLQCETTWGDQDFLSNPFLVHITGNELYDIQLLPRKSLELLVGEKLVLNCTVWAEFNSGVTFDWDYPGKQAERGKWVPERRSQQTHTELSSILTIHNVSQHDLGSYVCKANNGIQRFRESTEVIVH
An outline of the steps: as §1

The target in experiment [3] is T3, VEGFR-2-Fc (UniProt P35968 20-322).
T3 construct: domain: first 3 Ig domains; conditioned supernatant of 293T cells; also called VEGFR-2-Fc fusion protein; not shown: Fc fragment of the pIg vector
T3 sequence (P35968 20-322): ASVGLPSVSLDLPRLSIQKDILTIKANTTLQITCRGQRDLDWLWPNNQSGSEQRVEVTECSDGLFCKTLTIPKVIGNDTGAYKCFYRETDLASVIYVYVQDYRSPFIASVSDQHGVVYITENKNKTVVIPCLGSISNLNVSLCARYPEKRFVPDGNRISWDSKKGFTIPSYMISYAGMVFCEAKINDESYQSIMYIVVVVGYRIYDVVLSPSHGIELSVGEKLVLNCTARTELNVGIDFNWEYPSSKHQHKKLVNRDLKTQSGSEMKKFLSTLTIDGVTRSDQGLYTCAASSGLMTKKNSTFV
An outline of the steps: as §1

T1 sequence (P17948 27-338): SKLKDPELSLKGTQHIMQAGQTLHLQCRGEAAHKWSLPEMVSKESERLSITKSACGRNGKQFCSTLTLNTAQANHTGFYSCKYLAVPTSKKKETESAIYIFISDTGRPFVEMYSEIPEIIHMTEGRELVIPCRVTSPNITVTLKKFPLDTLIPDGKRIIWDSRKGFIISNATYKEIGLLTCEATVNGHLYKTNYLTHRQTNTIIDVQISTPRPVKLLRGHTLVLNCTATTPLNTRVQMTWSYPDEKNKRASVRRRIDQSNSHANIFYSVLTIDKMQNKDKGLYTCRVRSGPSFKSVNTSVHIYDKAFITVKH

B1: 12-9 (ligand)
chain: GQNHHEVVKFMDVYQRSYCHPIETLVDIFQEFGVATNTFFKPPCVSVYRCGGCCNDEGLECVPTEESNITMQIMRITVPLSQGPKPVTISFLQHNKCECRPKKDLVFEQKLISEEDLNSAVDHHHHHH
On to B1, for which the figures for the binding result in experiment [1], in experiment [2] and in experiment [3] were “binds”, “binds” and “no binding”, respectively.

B2: 12-11 (ligand)
chain: GQNHHEVVKFMDVYQRSYCHPIETLVDIFQEFGVATNTFFKPPCVSVYRCGGCCNSEGLQCVPTEESNITMQIMRITVPLSQGPKPVTISFLQHNKCECRPKKDLVFEQKLISEEDLNSAVDHHHHHH
notes: also called super-VEGF
On to B2, for which the binding result in experiment [1], in experiment [2] and in experiment [3] was “binds” each time.

B3: 12-15 (ligand)
chain: GQNHHEVVKFMDVYQRSYCHPIETLVDIFQEFGVATNTFFKPPCVSVYRCGGCCNSEGLQCVPTEESNITMQIMRITVPLSQGPKPVTISFANHTSCRCMSKLDLVFEQKLISEEDLNSAVDHHHHHH
In the case of B3, the binding result in experiment [1] is reported as “no binding”; in experiment [2] it was “binds”; in experiment [3], “binds”.

B4: 12-13 (ligand)
chain: GQNHHEVVKFMDVYQRSYCHPIETLVDIFQEFGVATNTFFKPPCVSVYRCGGCCNDEGLECVPTEESNITMQIMRITVPLSQGPKPVTISFANHTSCRCMSKLNLVFEQKLISEEDLNSAVDHHHHHH
notes: clone acquired a point mutation, Asp to Asn at the last C-terminal amino acid of the hybrid
As to B4, the binding result in experiment [1] is “binds”; in experiment [2], “binds”; in experiment [3] it was “no binding”.

B5: 23-6 (ligand)
chain: AHYNTEILKSIDNEWRKTQCMPREVCIDVGKEYPDEIEYIFKPPCVSVYRCGGCCNDEGLECMNTSTSYLSKTLFEIKPHQGQHIGEMSFANHTSCRCMSKLD
Regarding B5, the binding result in experiment [1], in experiment [2] and in experiment [3] was “no binding” in each case.

B6: 23-4 (ligand)
chain: AHYNTEILKSIDNEWRKTQCMPREVCIDVGKEYPDEIEYIFKPPCVSVYRCGGCCNSEGLQCMNTSTSYLSKTLFEIKPHQGQHIGEMSFLQHNKCECRPKKD
B6: the binding result in experiment [1], in experiment [2] and in experiment [3] was “no binding” each time.

B7: 21-2 (ligand)
chain: AHYNTEILKSIDNEWRKTQCMPREVCIDVGKEYPDEIEYIFKPSCVPLMRCGGCCNDEGLECMNTSTSYLSKTLFEIKPHQGQHIGEMSFLQHNKCECRPKKD
For the molecule B7, the binding result in experiment [1], in experiment [2] and in experiment [3] was “no binding” each time.

B8: 22-8 (ligand)
chain: AHYNTEILKSIDNEWRKTQCMPREVCIDVGKEFGVATNTFFKPPCVSVYRCGGCCNSEGLQCMNTSTSYLSKTLFEIKPHQGQHIGEMSFANHTSCRCMSKLD
B8: the binding result in experiment [1] is on record as “no binding”; in experiment [2], “binds”; in experiment [3] it was “binds”.

B9: 21-8 (ligand)
chain: AHYNTEILKSIDNEWRKTQCMPREVCIDVGKEYPDEIEYIFKPSCVPLMRCGGCCNSEGLQCMNTSTSYLSKTLFEIKPHQGQHIGEMSFANHTSCRCMSKLD
Take B9: the binding result in experiment [1], in experiment [2] and in experiment [3] was “no binding” in each case.

B10: 23-2 (ligand)
chain: AHYNTEILKSIDNEWRKTQCMPREVCIDVGKEYPDEIEYIFKPPCVSVYRCGGCCNDEGLECMNTSTSYLSKTLFEIKPHQGQHIGEMSFLQHNKCECRPKKD
In the case of B10, the binding result in experiment [1], in experiment [2] and in experiment [3] was “no binding” throughout.

B11: 21-6 (ligand)
chain: AHYNTEILKSIDNEWRKTQCMPREVCIDVGKEYPDEIEYIFKPSCVPLMRCGGCCNDEGLECMNTSTSYLSKTLFEIKPHQGQHIGEMSFANHTSCRCMSKLD
On to B11, for which the binding result in experiment [1], in experiment [2] and in experiment [3] was “no binding” in each case.

B12: 22-6 (ligand)
chain: AHYNTEILKSIDNEWRKTQCMPREVCIDVGKEFGVATNTFFKPPCVSVYRCGGCCNDEGLECMNTSTSYLSKTLFEIKPHQGQHIGEMSFANHTSCRCMSKLD
As for B12, the binding result in experiment [1] is “no binding”; in experiment [2], “binds”; in experiment [3], “binds”.

B13: 12-3 (ligand)
chain: GQNHHEVVKFMDVYQRSYCHPIETLVDIFQEFGVATNTFFKPPCVSVYRCGGCCNSEGLQCVPTEESNITMQIMRIKPHQGQHIGEMSFLQHNKCECRPKKDLVFEQKLISEEDLNSAVDHHHHHH
As for B13, the values for the binding result in experiment [1], in experiment [2] and in experiment [3] were “binds”, “no binding” and “binds”, respectively.

B14: 12-7 (ligand)
chain: GQNHHEVVKFMDVYQRSYCHPIETLVDIFQEFGVATNTFFKPPCVSVYRCGGCCNSEGLQCVPTEESNITMQIMRIKPHQGQHIGEMSFANHTSCRCMSKLDLVFEQKLISEEDLNSAVDHHHHHH
notes: also called super-VEGF
For B14, the binding result in experiment [1], in experiment [2] and in experiment [3] was “binds” throughout.

B15: 61-9 (ligand)
chain: GQNHHEVVKFMDVYQRSYCHPREVCIDVGKEYPDEIEYIFKPSCVPLMRCGGCCNDEGLECVPTEESNITMQIMRITVPLSQGPKPVTISFLQHNKCECRPKKD
Take B15: the binding result in experiment [1], in experiment [2] and in experiment [3] was “no binding” in each case.

B16: 64-15 (ligand)
chain: GQNHHEVVKFMDVYQRSYCHPREVCIDVGKEFGVATNTFFKPSCVPLMRCGGCCNSEGLQCVPTEESNITMQIMRITVPLSQGPKPVTISFANHTSCRCMSKLD
For B16, the binding result in experiment [1], in experiment [2] and in experiment [3] was “no binding” each time.

B17: 61-11 (ligand)
chain: GQNHHEVVKFMDVYQRSYCHPREVCIDVGKEYPDEIEYIFKPSCVPLMRCGGCCNSEGLQCVPTEESNITMQIMRITVPLSQGPKPVTISFLQHNKCECRPKKD
In the case of B17, the binding result in experiment [1], in experiment [2] and in experiment [3] was “no binding” in each case.

B18: 64-13 (ligand)
chain: GQNHHEVVKFMDVYQRSYCHPREVCIDVGKEFGVATNTFFKPSCVPLMRCGGCCNDEGLECVPTEESNITMQIMRITVPLSQGPKPVTISFANHTSCRCMSKLD
Turning to B18, the binding result in experiment [1], in experiment [2] and in experiment [3] was “no binding” throughout.

B19: 63-15 (ligand)
chain: GQNHHEVVKFMDVYQRSYCHPREVCIDVGKEYPDEIEYIFKPPCVSVYRCGGCCNSEGLQCVPTEESNITMQIMRITVPLSQGPKPVTISFANHTSCRCMSKLD
Turning to B19, the binding result in experiment [1], in experiment [2] and in experiment [3] was “no binding” throughout.

B20: 62-15 (ligand)
chain: GQNHHEVVKFMDVYQRSYCHPREVCIDVGKEFGVATNTFFKPPCVSVYRCGGCCNSEGLQCVPTEESNITMQIMRITVPLSQGPKPVTISFANHTSCRCMSKLD
With B20, the binding result in experiment [1], in experiment [2] and in experiment [3] was “no binding” each time.

B21: 63-13 (ligand)
chain: GQNHHEVVKFMDVYQRSYCHPREVCIDVGKEYPDEIEYIFKPPCVSVYRCGGCCNDEGLECVPTEESNITMQIMRITVPLSQGPKPVTISFANHTSCRCMSKLD
Regarding B21, the binding result in experiment [1], in experiment [2] and in experiment [3] was “no binding” each time.

B22: 63-11 (ligand)
chain: GQNHHEVVKFMDVYQRSYCHPREVCIDVGKEYPDEIEYIFKPPCVSVYRCGGCCNSEGLQCVPTEESNITMQIMRITVPLSQGPKPVTISFLQHNKCECRPKKD
On to B22, for which the binding result in experiment [1], in experiment [2] and in experiment [3] was “no binding” in each case.

The record behind these values is patent US20080058263A1 (published 2008).
